Test results published in patent publication US20210371878A1.

What was measured:
[1] = target: C-intein of Npu DnaE fused to 3' ABCA4 (set 1, from Cys1150), 3xflag (product of pzac-CMV260-3' ABCA4 intein) (Nostoc punctiforme; human) (UniProt P78363); experiment: cell-based or functional assay
[2] = target: C-intein of DnaE from Nostoc punctiforme fused to the C-terminal half of EGFP, 3xflag (product of pAAV2.1-CMV-3' EGFP intein) (Nostoc punctiforme); experiment: cell-based or functional assay

Full-length ABCA4 by Western blot band intensity, relative to the single AAV plasmid (HEK293, set 1) [1]	EGFP protein amount by Western blot band intensity, relative to a single AAV plasmid [2]	Substance
61%		5' ABCA4 (set 1, split at Cys1150) fused to the N-intein of Npu DnaE, 3xflag (product of pzac-CMV260-5' ABCA4 intein) (from UniProt P78363 1-1150)
	76%	N-terminal half of EGFP fused to the N-intein of DnaE from Nostoc punctiforme, 3xflag (product of pAAV2.1-CMV-5' EGFP intein)
